These results are taken from article PMC4220969, “Structural basis for the recognition of muramyltripeptide by Helicobacter pylori Csd4, a D,L-carboxypeptidase controlling the helical cell shape” (Acta Crystallographica Section D: Biological Crystallography, 2014).

Test [1] has as its target FITC-labelled dipeptide (FITC-L-Ala-D-Glu). As to the kind of experiment: fluorescence polarisation; FITC-labelled dipeptide at 9.2 nM, Csd5 titrated from 17.0 nM to 17.4 µM, 10 mM HEPES pH 7.5, 100 mM sodium chloride. In general terms: In fluorescence polarisation assays a small probe gives low polarisation when free and higher when bound to something large.
For another test, the target named is T1, Csd5 (Helicobacter pylori, UniProt O25843).
T1 construct: gene HP_1250
As to the kind of experiment: fluorescence polarization. To be noted: labelled compound; 9.2 nM FITC-dipeptide, 10 mM HEPES pH 7.5, 100 mM NaCl. It counts as binding.

For test [2], the target named is T2, Helicobacter pylori Csd4 (HP1075 in strain 26695), recombinant, residues Met22-Val438 (Helicobacter pylori strain 26695, UniProt O25708 22-438).
T2 construct: Csd4 (HP1075) from H. pylori strain 26695, residues Met22-Val438; the N-terminal 19 residues are a predicted signal peptide and are not in the construct; No cleavage of the tag is described; also called D,L-carboxypeptidase; source: E. coli Rosetta2(DE3), purified (HiTrap Chelating HP, HiTrap SP HP, Superdex 200)
T2 sequence (looked up): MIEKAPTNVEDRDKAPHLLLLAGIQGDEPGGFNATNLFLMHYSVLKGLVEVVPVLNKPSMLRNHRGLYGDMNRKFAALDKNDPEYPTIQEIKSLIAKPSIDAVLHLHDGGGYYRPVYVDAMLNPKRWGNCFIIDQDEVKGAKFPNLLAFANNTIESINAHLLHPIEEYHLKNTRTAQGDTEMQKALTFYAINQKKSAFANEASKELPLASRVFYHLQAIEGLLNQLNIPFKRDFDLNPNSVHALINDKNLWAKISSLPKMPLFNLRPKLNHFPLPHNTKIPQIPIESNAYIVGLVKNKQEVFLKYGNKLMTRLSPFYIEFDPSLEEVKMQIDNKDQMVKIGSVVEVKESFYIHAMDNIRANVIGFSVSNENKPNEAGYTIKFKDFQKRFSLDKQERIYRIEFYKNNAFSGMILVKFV
Kind of test: SPR; as a1, EDTA-treated Csd4-immobilised chip retreated with running buffer containing 5 mM calcium chloride. To be noted: both partners purified. A general note: SPR reads the build-up and loss of mass on a sensor chip optically.

Test [3] has as its target T2, Helicobacter pylori Csd4 (HP1075 in …). Kind of test: SPR; Csd4 immobilised by amine coupling on a carboxymethyl dextran chip, Csd5 as analyte (0.25-2.00 µM), 10 mM HEPES pH 7.5, 100 mM sodium chloride, 25°C; BSA reference subtracted. To be noted: both partners purified.

Where no end group is shown, it is not given here. [ ]: non-standard residue; d: D form. The star is where a group is joined. FITC = O=C1OC2(c3ccc(O)cc3Oc3cc(O)ccc32)c2ccc(NC(=S)*)cc21

The molecule “Helicobacter pylori Csd5 (HP1250 in strain 26695), N-terminal 40-residue-truncated construct, residues Ser41-Glu192 (from UniProt O25843 41-192) (domain or fragment)” yielded a Kd in test [1] of 1690 nM. {FITC}-Ala-[dE]: the Kd at Csd5 is about 1690 nM.

B1: Helicobacter pylori Csd5 (HP1250 in strain 26695), N-terminal 40-residue-truncated construct, residues Ser41-Glu192 (domain or fragment, Helicobacter pylori strain 26695, UniProt O25843 41-192, looked up)
chain: SAPISPNVEKTETERQNGVLSPKQEEANATTTATEESPTKDTAPPLDTAAQKQETKQEQEKENEPKQDSVPPVQNNQKTPTTPLMGKKPLEYKVAVSGVNVRAFPSTKGKILGLLLKNKSVKVLEIQNDWAEIEFSHETKGYVFLKLLKKAE
notes: Csd5 (HP1250) from H. pylori strain 26695, residues Ser41-Glu192; lacks the predicted transmembrane region (Pro15-Val37); No cleavage of the tag is described; source: E. coli, overexpressed and purified essentially as Csd4 (gel filtration in 10 mM HEPES pH 7.5, 100 mM sodium chloride)
On to B1, for which the values for the dissociation constant Kd in test [2] and in test [3] were about 4300 nM and about 4500 nM, respectively.

In general, Kd refers to a measure of binding affinity in units of concentration.
